Test results as given in patent US20130115189A1.

Assays:
IL-1 receptor [1] = assay: homogeneous time-resolved fluorescence (HTRF) receptor binding assay
IL-1 receptor [2] = assay: cell-based or functional assay

IC50 (IL-1 receptor [1]) [nM]	Bioactivity reduction (IL6 release, HeLa cells), ratio of EC50 to MA-wt (IL-1 receptor [2]) [fold]	Substance	Bioactivity reduction (Cytotoxicity, A375 cells), ratio of LC50 to MA-wt (IL-1 receptor [2]) [fold]
20		MA-wt (interleukin-1β wild type sequence containing an N-terminal methionine) (from UniProt P01584 117-269) (ligand)	
23		MA-wt-His6 (from UniProt P01584 117-269) (ligand)	
28		MA-D145K-His6 (from UniProt P01584 117-269) (ligand)	
4810	60000	MDI-D145K-His6 (from UniProt P01584 118-269) (ligand)	600000
6770	60000	MDI-D145K-CG (from UniProt P01584 118-269) (ligand)	600000
31		MA-wt-CG (from UniProt P01584 117-269) (ligand)	
1340	43	MDI-wt-His6 (from UniProt P01584 118-269) (ligand)	700
